Values quoted from earlier work in patent US20160296600A1, “Relaxin Prodrugs” (ASCENDIS PHARMA RELAXIN DIVISION A/S, priority 2013, published 2016).

Conditions: humans, intravenous administration

Relaxin: Mature human relaxin, hormonal peptide of approximately 6000 daltons; A-chain SEQ ID NO:1, B-chain SEQ ID NO:2
half-life: less than 10 minutes
